Test results reported in the DeepSol protein solubility set.

Assay: soluble on expression in E. coli; label from the status in PepcDB or PDB records

## MAAIIRTLFKSKKSKKGDEENNEDLAREVSNRRSFRAPSTSSSKSQRRAVARFADDGALPATAAYHTTSAPKLRKGPQSCPGGYRDESDVSYESDKYSQKSNSHRRRDVLHQSMRQNYTIDEGRKPSSRRHHSSKSDFRRRGESSEYGSGDPSPVGQYSSRHSHYEDRIEESENDDFSEKAQFAVIERAQQHYMQKYKESEQKRREEKRKLKDMEKECNDAKNAMFHYMNQLDKVKKERDCYRKELSRCKKQLEAFQNSGYDAFHHLRQPQISNPQQYPPPLSMGSYPYMSQSMNASHHMSSNFMNSAPPSSNTPMTMTSGAGESLINPSDVSFLQNSFLQPTSQGLTGMTPPPGGFKVPTNYGDDDRDEVKDYRSELLIETSRSTKEVDSISPSSSADSQVTLLDHSTIDKENRKPPSRPFSMMSI
  soluble on expression in E. coli: not soluble

## MGHHHHHHSHMSGVAGGASKKSSSRTMATKKLIIDEFKRRLRDNIKSLNDNFFHIIQAAKVNPDDNAYKNQTGKMTEFYTTKNEMAVRAQLMVRASDELLKLTADLKEFLILHDFHFLTHNIKQAEAQCEETLRQQSHQHNCLDSEVSNILFDLEREIAENFYLRHT
  soluble on expression in E. coli: not soluble

## MPTETLSSVFVLVVLLPTSGLLPRTEAAFVASSSIEYCERSSNGEPFPCEKKMVVGLSVGSEQTIEAEEVVLLREAVDKTGDEKGKRVEFEPIRLVTTKSPVQYRYPIYYIRNFNAKPYEQRLRTSASSWCDDSSNPGSATCGVARDRRGDVIPYSQGFCCLCGACALSGICNPTSRSVGTCSVTGDTGMASCLRFSDLWYGGYTIGRGVVWYELQVKLSSGNNSTGGGSTGSKEFTMSLGPDKLTATSTEFGASARLIGDFAPPEMPLDLSGKMLFIPSEPRGHERVGAGYNEWIIVDTHLVSIRGTECNKVGVSYEGFATQGSRCDAYPGACLANQLEDYRDRDLEAETKGQQGKYMARFFAPFGFDPLANASAPAVAYQVTGTLSTMVTITISADKLNFVLSVSSGVVVGATVSGKVVHSYSRGSTITVTVLNTGDIEAQYTVVVGECTVNVQPMVAQTVYIPLQGSAQRRFTLIVQDSIEGEAKCNATLRNARGDVVDTRAISFGVKALKPSNGSQGGSTFENGRYSEEAKGESQCQQCSWFNLLCFLRHRCWWQPLVYVLPSVTLLMLLRRFLESQSRSRPRPQLHPDEHELRNTGAISSCHLPRAPYVNTVH
  soluble on expression in E. coli: not soluble

## MAHHHHHHMNSGYPGPSGITVGSPGLPPGSLGSPFPEQMTSAHSSDGMQGSNASQVPLTIHADVDQHSKSHSPTLTSGVEVLFATHQPPVAGVNAPWDEDDDWSTPGAPAQHPASVGAPAKPPLPPGNNAPPPILIAEQMNPGSPAEPHPTPVAMSPPPSSDGFIASSSRAGSPNCPPTPLEKPSAANVAKVDALMKQIASRTAAMDAATKEKEMKIVTAAQEYLKALMAKRGEEVMNAKAIHKEEQQVGAEKINEHKKSGDVWSAVGLLVDLQKPNQYSRSTEQMRTVLSALNATPAKK
  soluble on expression in E. coli: soluble

## MEVKKVLVSAFLLTTCLMSGQAQRRNEIQVPDLDGYTTLKCDFHMHSVFSDGLVWPTVRVDEAYRDGLDAISLTEHIEYRPHKQDVVSDHNRSFDLCREQAEKLGILLIKGSEITRAMAPGHFNAIFLSDSNPLEQKDYKDAFREAKKQGAFMFWNHPGWDSQQPDTTKWWPEHTALYQEGCMHGIEVANGHLYMPEAIQWCLDKNLTMIGTSDIHQPIQTDYDFEKGEHRTMTFVFAKERSLQGIREALDNRRTAAYFHELLIGREDLLRPFFEKCVKIEEVSRNEQGVTLSITNVTDLVLKLKKTAHDTLLVYFRDMTLKPHTRYTVRIGFKQGIKGGDVNFEVTNFIVAPDKGLKYTISL
  soluble on expression in E. coli: not soluble

## MGSDKIHHHHHHMTTAPLSWEELETLTDYQIDTVNGLTNAKARLRLFGQPESDVRVTLYRDNHAWCPYCQKVWLWLEEKQIPYRIEKVTMFCYGEKESWYKRKVPSGMLPAIELDGRIIKESDDILIALEKVFAPLNQGMEDRMVLPLRQLERLLFRAWCVWLCSRAGSSQQEQRNREQFIEMVARIEEALGRTPSPYFLDSFGIVDVIFTPYLERMNASLYYYKGYSLREENPRLSAWFAAMESRPTYCGTQSDFHTHAHDLPPQMGGCWENGETQMLLNKARVDNGPWFGLPDVAYPEPENSRMEALKRTIEHRINIIRVNPLDDKLFDQALRCALTHMMTGEDYVPPSGADVALRYLRDRINVPRDMSIYAAKRLRESLEKTAALAGDGQPDPIPTKHRRDQDPSNFVIK
  soluble on expression in E. coli: not soluble

## MAHHHHHHMEVEWDSETVTKFYNYLCGTISYQNCVELEKDLRIETGTEEKLNKHSCSSCSDHHGDVNISCFKFKKDDDDVLGEILDSEKDQENVKASLAEITQKAFTIYSNVIAKAASKGDNKVTLETDHFLRSDILRLVFSKYITTKAKERITEISSKSTKNIVTLANPLNMNEHDLNKIETDTIANLMHDYVGLQKNFLGRDYTKLIFDELVFIEYNNQFNSFGREYKNVRTDFYCWTYITSLDRQKQRGLYKLLKELSLLPYELNKKANLSLQIGTLFQFLYFSPNKSYLKKHCQGGYGKMDNGKKVTCIYVPFVHSNDDVEIKLYRSEYNGVNEESEESEGRGKTEPNVRDATTVPSNQTDDGAPFRVIKPESDSLIFLQTRNVSYEISKTKNKFFTVNFSISGPVSTERRL
  soluble on expression in E. coli: not soluble

## MLGDVERFFSKKALEMRASEVRELLKLVETSDIISLAGGLPNPKTFPKEIIRDILVEIMEKYADKALQYGTTKGFTPLRETLMKWLGKRYGISQDNDIMITSGSQQALDLIGRVFLNPGDIVVVEAPTYLAALQAFNFYEPQYIQIPLDDEGMKVEILEEKLKELKSQGKKVKVVYTVPTFQNPAGVTMNEDRRKYLLELASEYDFIVVEDDPYGELRYSGNPEKKIKALDNEGRVIYLGTFSKILAPGFRIGWMVGDPGIIRKMEIAKQSTDLCTNVFGQVVAWRYVDGGYLEKHIPEIRKFYKPRRDAMLEALEEFMPEGVKWTKPEGGMFIWVTLPDGIDSKKMLERAIKKGVAYVPGEAFYAHRDVKNTMRLNFTYVDEDKIMEGIKRLAETIKEELKA
  soluble on expression in E. coli: soluble

## MGSDKIHHHHHHMSLSHNRHKKLIEMVQTDGEVRIRDLMVHFNVSEETARRDIKQLEQDGLVVRVHGGAVATQQPKLLTISSRAISELAEKNVIAEIALGLLKPGQNLFFGGGSTVLALARRISMLPEMRIVTNMVDTAIAASEGRRHRVVLLGGDFNGDYRVVTGFAALRTLREQQIDIAFIGVNAVHPTLGVFDHEQGGQELAATLAEQARKITVLADHSKFGRSARYRTLPHSAIATIITDQQPEPHVLTAIEGAGADVLYPPQNPS
  soluble on expression in E. coli: not soluble

## MRLEYRLNDETKGYPALWNYANISNSEIIARMTCEYFIKEKNTYVVTATSVDPDGTAVIYIQKEVFANDPSDPTYSYIGFEIRELSETSSNIVDSQDVWNYEEILPSLHSDIIYIQRDGMSMEFSLDSREIDEDRKCYIYYGNFTGESR
  soluble on expression in E. coli: soluble

## MEIQDYTDSEFKHALARNLRSLTRGKKSSKQPIAILLGGQSGAGKTTIHRIKQKEFQGNIVIIDGDSFRSQHPHYLELQQEYGKDSVEYTKDFAGKMVESLVTKLSSLGYNLLIEGTLRTVDVPKKTAQLLKNKGYEVQLALIATKPELSYLSTLIRYEELYIINPNQARATPKEHHDFIVNHLVDNTRKLEELAIFERIQIYQRDRSCVYDSKENTTSAADVLQELFFGEWSQVEKEMLQVGEKRLNELLEK
  soluble on expression in E. coli: soluble

## MSLDNPNSSIFADLLAKASELENIIVTLQHKIQGGYYFLNDIEIISEDDARNFDVELVRLKGICNHMQRYNTKAKMRNIDWPIDVVKTAMTETRSKVFETLDLMKELDGFRDLVSYLRIALSNVNDNDLKTEIISSIDGIKEVINKGKQARDAYKLKLEALKDRYATWYMEAYLKAHISEIDHGKKSAVMLSTEKQLCDIIKNASFINPSRYDNWLRKMNLLKVVNSSVNKNAILSVPTSVDGFNPSMQKDELPELEDLKDELKEIYAEYEQGFHDALEDPTILRNKEMLTQEERSTIQQFIDGNITLNPQYARILIDIINKLQRSFTKVEINHNEMLKIFSRPMTKQQALDALAAYIDNHSRGHKPEDIRIIVKEGHHHHHH
  soluble on expression in E. coli: soluble

## MSSQDVLIHSDDPCHPANLICTLCKQFFHNNWCTGTGGGISIKDPNTNYYYLAPSGVQKEKMIPEDLFVMDAQTLEYLRSPKLYKPSACTPLFLACYQKKNAGAIIHTHSQNAVICSLLFGDEFRIANIEQIKAIPSGKVDPVTKKPMALSFFDTLKIPIIENMAHEDELIDDLHKTFKDYPDTCAVIVRRHGIFVWGPTIDKAKIFNEAIDYLMELAIKMYQMGIPPDCGIGEEKKHLKMASP
  soluble on expression in E. coli: soluble

## MSLSGYAQTTKSEKIDKKLDSIYLKRENYVVSARDKLTIFIFSTRYLNGKLFTNPGIDNYYFPIAPLNIGLGFSHKWLAVNIAILSPKLGKSNYDNSQSKYQNFNLQALAYTPKYGVDIFYSQNLGYFLGNYNGYIDVANAPDKTPYFDMKTNRFTINLLRVFNPVKYSMNATMIGGEMQKNSSSSFIINTSFSLSKFRMSDSIPAFILDQMNQEAIFKGGTFYSISVLPGYGFTWIFSKRFYLGIIPGFGPSFQYKSMTFEDEHENKVAISYRIIAKAGAGFHAKRWTAGISVLYDNERYHLGSKTNIFNNNGKVILKVGYKINVPNWGKGLSKKMSTMQNKFEHTLHNEGHHHHHH
  soluble on expression in E. coli: not soluble

## MYPSDFASQLNVLSLKEMKEAIHHLLDIRDENTWMLFGTLPIYPCLNDEYDQHLLQRLRKSKNVTMRNDPDGRSRLNVNVFTGDVIVTDFGDENGTISNIQKDKLTDVFNQWLNTDLAQSLNCHCAEYQCLGPNVLVKNMYYPNTDFKKKEQIMHQHQIFS
  soluble on expression in E. coli: not soluble

## MGSDKIHHHHHHMRAVRLHAKWDPRPEFKLGPKDIEGKLTWLGSKVWRYPEVRVEEVPEPRIEKPTEIIIKVKACGICGSDVHMAQTDEEGYILYPGLTGFPVTLGHEFSGVVVEAGPEAINRRTNKRFEIGEPVCAEEMLWCGHCRPCAEGFPNHCENLNELGFNVDGAFAEYVKVDAKYAWSLRELEGVYEGDRLFLAGSLVEPTSVAYNAVIVRGGGIRPGDNVVILGGGPIGLAAVAILKHAGASKVILSEPSEVRRNLAKELGADHVIDPTKENFVEAVLDYTNGLGAKLFLEATGVPQLVWPQIEEVIWRARGINATVAIVARADAKIPLTGEVFQVRRAQIVGSQGHSGHGTFPRVISLMASGMDMTKIISKTVSMEEIPEYIKRLQTDKSLVKVTMLNE
  soluble on expression in E. coli: not soluble

## KDWSLDVTANISALRNKVKSLGEGVQPIKAEVMMSGSFNDRPTITKPGLPIGTFWGYVVEGFDNDGNFIFQDNNGSVNGVLTGKPDGKIDENDKTDIGNPHPDFTYGLNINVGYKNWDLTAFFQGTQGNDIFALMKYDWYFGGANSATLKDAFYNSWTPQNPNAEAPKLNSKNSSGINSLPSTFYVEDGSYFRCKNLQIGYSFNKKLLQKFHIESFRIYAGVQNLFTITKYPLYDPEVSSNVLFDRGVDGFWQAQESPHEATMNSRVYNLGVNLTF
  soluble on expression in E. coli: not soluble

## MKTPARRSKRVNQEESETNVTTRVVLRTRKTNCSKTRAARVRPDYPLTRTTSESEMKLMPPEFFQIDALDLAPRLLGKFMRRDNVVLRITEVEAYRPNDSACHGRFGVTPRTAPVFGPGGHAYVYLCYGLHMMLNIVADKEGVGAAVLIRSCSPVSGMETIQERRGLKTDKPVLLNGPGKVGQALGLSTEWSHHPLYSPGGLELLDGGEDVEKVMVGPRVGIDYALPEHVNALWRFAVADTPWISAPKNTLKPL
  soluble on expression in E. coli: soluble

## MLPEYGPLAPSEEELHLFGDVDRLKVLEIGCGSGHSLKYLDEKQAGELWGIDLSTKQIEAAQTVLKDSKAPVTLFESPMEVNPGLPTDYFDIVFSIYALGWTTNLTKTLENVYRYLKPGGSFIFSWEHPMYNRVRQHQHGLTVDKSYHEEGAYAHEAWSSPAIMQQYRLSTYLNHLIDHGFKVERVIEDVCLADAQKHTNGWYGYEKAQMIPTTLIIKCLKQLEHHHHHH
  soluble on expression in E. coli: soluble
